The values below come from publication doi:10.1101/2023.07.17.549407 (bioRxiv, 2023).

Where no end group is shown, it is not given here. Ahx = NCCCCCC(=O)O

Assay [1] addresses T1, Human CHIP(21-154)-TPR domain (human, UniProt Q9UNE7 21-154).
T1 sequence: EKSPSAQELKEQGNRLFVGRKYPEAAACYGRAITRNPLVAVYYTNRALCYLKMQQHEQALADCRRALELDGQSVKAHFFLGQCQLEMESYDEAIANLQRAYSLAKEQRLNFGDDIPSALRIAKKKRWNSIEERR
The assay is described as follows: crystal structure.

The target of assay [2] is T2, carboxy-terminus of Hsp70 interacting protein (CHIP), recombinant (human, UniProt Q9UNE7 1-303).
T2 sequence: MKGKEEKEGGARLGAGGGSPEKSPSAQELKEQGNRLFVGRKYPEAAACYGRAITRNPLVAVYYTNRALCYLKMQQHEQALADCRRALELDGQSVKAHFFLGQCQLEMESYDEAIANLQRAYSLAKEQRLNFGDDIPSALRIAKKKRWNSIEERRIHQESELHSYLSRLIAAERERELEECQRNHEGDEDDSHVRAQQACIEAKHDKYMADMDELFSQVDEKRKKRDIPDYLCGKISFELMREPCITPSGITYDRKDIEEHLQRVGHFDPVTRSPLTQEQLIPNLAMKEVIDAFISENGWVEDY
The assay is described as follows: fluorescence polarisation. Background: Fluorescence polarisation rises when a labelled molecule tumbles more slowly, as on binding a larger partner.

B1: HsCHIC2(154-165)-c-term peptide (peptide)
peptide: EFLPKTPIFRPD
For B1, in assay [1], the binding result is on record as “binds”.

B2: labeled CHIC2 peptide (FAM-Ahx-IFRPD) (peptide)
peptide: {FAM-Ahx}-IFRPD
The term Kd denotes the free concentration of one partner at which half of the binding sites on the other are occupied at equilibrium, for simple one-to-one binding. As for B2, the equilibrium dissociation constant (Kd) in assay [2] was 148 ± 6 nM.

B3: CHIC2 C-terminal 10-mer peptide Ac-LPKTPIFRPD (peptide)
peptide: Ac-LPKTPIFRPD
Turning to B3, in assay [2], the binding result was “binds”.

B4: CHIPOpt tracer (FITC-Ahx-LWWPD) (peptide)
peptide: LWWPD
modifications: not fully specified (N-terminus); printed as FITC-Ahx-LWWPD
B4: the binding result in assay [2] is “binds”.

B5: Hsp70 C-terminal tracer (FAM-Ahx-IEEVD) (peptide)
peptide: {FAM-Ahx}-IEEVD
B5: in assay [2], the binding result is on record as “binds”.

B6: IWWPD tracer (peptide)
peptide: {FAM-Ahx}-IWWPD
Consider B6, for which, in assay [2], the binding result is “binds”.
